Measurements: patent US6413943

How the values were obtained:
CDC2/cyclin B = CDC2/cyclin B (UniProt P06493); assay: in vitro kinase assay; mixture of p27 and p16
CDK2/cyclin E = CDK2/cyclin E (UniProt P24941); assay: in vitro kinase assay; mixture of p27 and p16
CDK4/cyclin D1 complex = CDK4/cyclin D1 complex (UniProt P11802); assay: cell-based or functional assay
CDK2/cyclin A complex = CDK2/cyclin A complex (UniProt P24941); assay: cell-based or functional assay
CDC2/cyclin B complex = CDC2/cyclin B complex (UniProt P06493); assay: cell-based or functional assay
CDK2/cyclin E complex = CDK2/cyclin E complex (UniProt P24941); assay: cell-based or functional assay

Sequence of CDK4/cyclin D1 complex (P11802 whole entry, chain 1 of 2): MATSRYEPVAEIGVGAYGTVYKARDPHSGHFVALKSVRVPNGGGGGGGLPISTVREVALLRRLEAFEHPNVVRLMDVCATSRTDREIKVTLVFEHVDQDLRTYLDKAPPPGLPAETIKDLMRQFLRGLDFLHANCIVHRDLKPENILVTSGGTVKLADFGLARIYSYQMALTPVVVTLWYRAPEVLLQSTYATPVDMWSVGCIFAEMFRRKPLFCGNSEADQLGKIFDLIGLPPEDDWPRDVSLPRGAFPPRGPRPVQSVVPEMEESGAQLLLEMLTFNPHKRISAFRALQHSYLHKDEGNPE
Sequence of CDK4/cyclin D1 complex (P24385 whole entry, chain 2 of 2, further chain): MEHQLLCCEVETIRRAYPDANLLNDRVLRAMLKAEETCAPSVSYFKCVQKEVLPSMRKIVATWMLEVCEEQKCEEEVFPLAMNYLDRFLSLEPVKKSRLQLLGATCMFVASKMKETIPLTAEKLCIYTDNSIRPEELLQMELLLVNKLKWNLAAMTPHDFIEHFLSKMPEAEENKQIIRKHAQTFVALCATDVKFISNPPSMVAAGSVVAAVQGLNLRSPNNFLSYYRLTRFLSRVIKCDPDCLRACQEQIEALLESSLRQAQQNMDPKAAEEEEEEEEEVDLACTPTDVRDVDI
Sequence of CDC2/cyclin B complex (P06493 whole entry, one chain of several): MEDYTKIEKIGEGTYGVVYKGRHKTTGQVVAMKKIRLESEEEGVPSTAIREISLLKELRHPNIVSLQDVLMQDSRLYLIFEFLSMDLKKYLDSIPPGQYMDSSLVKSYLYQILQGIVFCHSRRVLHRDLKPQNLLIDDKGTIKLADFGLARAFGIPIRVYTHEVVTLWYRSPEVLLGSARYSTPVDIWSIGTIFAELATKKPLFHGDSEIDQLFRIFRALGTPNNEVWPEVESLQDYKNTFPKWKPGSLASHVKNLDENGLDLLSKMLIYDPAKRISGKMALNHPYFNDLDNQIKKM
Sequence of CDC2/cyclin B (P06493 whole entry): as the sequence (P06493 whole entry, one chain of several) above

IC50 (CDC2/cyclin B)	IC50 (CDK2/cyclin E)	IC50, in vitro kinase activity (GST-Rb phosphorylation) (CDK4/cyclin D1 complex)	IC50, in vitro kinase activity (CDK2/cyclin A complex)	IC50, in vitro kinase activity (histone H1 phosphorylation) (CDC2/cyclin B complex)	IC50, in vitro kinase activity (GST-Rb phosphorylation) (CDK2/cyclin E complex)	Substance
12 nM	1.7 nM					p27 + p16
		63 nM				human p27 (from UniProt P46527 1-198)
		25 nM	25 nM	15 nM	30 nM	p27-p16 fusion protein
